The results in this text go back to the supplement of paper PMC9112550, “Optimization of the antimicrobial peptide Bac7 by deep mutational scanning” (BMC Biology, 2022).
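Note: peptides expressed intracellularly from a pBAD plasmid library in pooled LB shake-flask culture, induced with 0.3% L-arabinose, DNA abundance read by NGS, three biological replicates, DESeq2 with apeglm shrinkage.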

This data set deals with Escherichia coli TOP10. In words: shrunken log2 fold change of peptide-encoding DNA abundance (4.5 h post-induction vs induction); higher = less antimicrobial activity (less host growth inhibition). Conditions: time post-induction: 4.5 h; library: site-saturation at positions 5, 18, 19, 20.
For the sequence RRIRTRPPRLPRPRPRPQSHPRP, the “shrunken log2 fold change” value was -0.207. With RRIRRRPPRLPRPRPRPNPHPRP, the “shrunken log2 fold change” value was found to be 0.534. As for RRIRPRPPRLPRPRPRPHYNPRP, the “shrunken log2 fold change” value is -0.769. In the case of RRIRARPPRLPRPRPRPKVKPRP, the “shrunken log2 fold change” value came out at 0.171. Turning to RRIRIRPPRLPRPRPRPERGPRP, the “shrunken log2 fold change” value stood at 0.183. To RRIRFRPPRLPRPRPRPKLWPRP belongs 0.287; to RRIRHRPPRLPRPRPRPQARPRP, 0.225.

With RRIRCRPPRLPRPRPRPTNSPRP, the “shrunken log2 fold change” value was -0.336. To RRIRKRPPRLPRPRPRPGEGPRP belongs 0.0997; to RRIRYRPPRLPRPRPRPCNFPRP, -0.303; to RRIRARPPRLPRPRPRPRALPRP, 0.482. To RRIRRRPPRLPRPRPRPHDPPRP belongs -0.0379; to RRIRMRPPRLPRPRPRPVYMPRP, -0.214. Consider RRIRGRPPRLPRPRPRPCRYPRP, for which the “shrunken log2 fold change” value was determined as 0.24. Turning to RRIRARPPRLPRPRPRPYSWPRP, the “shrunken log2 fold change” value was -0.0849.

As for RRIRHRPPRLPRPRPRPNDHPRP, the “shrunken log2 fold change” value is -0.499. Consider RRIRERPPRLPRPRPRPRVSPRP, for which the “shrunken log2 fold change” value came out at 0.0184. To RRIRARPPRLPRPRPRPKVFPRP belongs 0.193; to RRIRIRPPRLPRPRPRPMCGPRP, -0.0603. For RRIRCRPPRLPRPRPRPIYYPRP, the “shrunken log2 fold change” value was -0.653.

Turning to RRIRRRPPRLPRPRPRPMRWPRP, the “shrunken log2 fold change” value was determined as 0.638.

In the case of RRIRGRPPRLPRPRPRPAFTPRP, the “shrunken log2 fold change” value worked out at 0.436. As to RRIRLRPPRLPRPRPRPIRQPRP, the “shrunken log2 fold change” value is -0.0246. Turning to RRIRYRPPRLPRPRPRPALNPRP, the “shrunken log2 fold change” value was -0.541. To RRIRARPPRLPRPRPRPMQEPRP belongs 0.421. On to RRIRLRPPRLPRPRPRPGVYPRP, for which the “shrunken log2 fold change” value was -0.221.

With RRIRYRPPRLPRPRPRPKCRPRP, the “shrunken log2 fold change” value was -0.153. As for RRIRSRPPRLPRPRPRPSAPPRP, the “shrunken log2 fold change” value is 0.287. RRIRLRPPRLPRPRPRPVLFPRP: the “shrunken log2 fold change” value was -0.0101.

Consider RRIRPRPPRLPRPRPRPMVDPRP, for which the “shrunken log2 fold change” value is -0.019.

With RRIRDRPPRLPRPRPRPCGTPRP, the “shrunken log2 fold change” value is -0.0281. Consider RRIRKRPPRLPRPRPRPYGLPRP, for which the “shrunken log2 fold change” value was found to be 0.0165.

Consider RRIRMRPPRLPRPRPRPFDPPRP, for which the “shrunken log2 fold change” value is 0.0446.

For the sequence RRIRWRPPRLPRPRPRPNAYPRP, the “shrunken log2 fold change” value was -0.214.

As for RRIRYRPPRLPRPRPRPMHIPRP, the “shrunken log2 fold change” value is -0.0235. In the case of RRIRQRPPRLPRPRPRPINQPRP, the “shrunken log2 fold change” value is -0.314. For the sequence RRIRPRPPRLPRPRPRPFKVPRP, the “shrunken log2 fold change” value was -0.0681.

Take RRIRGRPPRLPRPRPRPAMIPRP: the “shrunken log2 fold change” value was determined as 0.2.

Turning to RRIRKRPPRLPRPRPRPRMHPRP, the “shrunken log2 fold change” value was determined as 0.557. As for RRIRWRPPRLPRPRPRPDINPRP, the “shrunken log2 fold change” value was 0.235. Turning to RRIRMRPPRLPRPRPRPNIQPRP, the “shrunken log2 fold change” value is -0.112.

For the sequence RRIRVRPPRLPRPRPRPENNPRP, the “shrunken log2 fold change” value stood at 0.00554.

For RRIRGRPPRLPRPRPRPPLTPRP, the “shrunken log2 fold change” value stood at 0.971. Take RRIRRRPPRLPRPRPRPGSRPRP: the “shrunken log2 fold change” value turned out to be 0.155. For the sequence RRIRNRPPRLPRPRPRPIQLPRP, the “shrunken log2 fold change” value is -0.203. Take RRIRLRPPRLPRPRPRPKRQPRP: the “shrunken log2 fold change” value is 0.045. To RRIRQRPPRLPRPRPRPHSLPRP belongs 0.178. In the case of RRIRHRPPRLPRPRPRPECPPRP, the “shrunken log2 fold change” value was -0.0835. Turning to RRIRDRPPRLPRPRPRPSISPRP, the “shrunken log2 fold change” value was -0.0844. For RRIRMRPPRLPRPRPRPSKSPRP, the “shrunken log2 fold change” value came to 0.166. With RRIRRRPPRLPRPRPRPWINPRP, the “shrunken log2 fold change” value was -0.37. For RRIRGRPPRLPRPRPRPCHRPRP, the “shrunken log2 fold change” value came to 0.207. RRIRRRPPRLPRPRPRPVYGPRP: the “shrunken log2 fold change” value was -0.0668.

On to RRIRSRPPRLPRPRPRPAPHPRP, for which the “shrunken log2 fold change” value came to 0.276. Regarding RRIRIRPPRLPRPRPRPDPCPRP, the “shrunken log2 fold change” value was -0.224.

In the case of RRIRWRPPRLPRPRPRPAAEPRP, the “shrunken log2 fold change” value stood at 1.21. Take RRIRNRPPRLPRPRPRPGFPPRP: the “shrunken log2 fold change” value is -0.00149. To RRIRDRPPRLPRPRPRPPGPPRP belongs 1.9; to RRIRPRPPRLPRPRPRPFIQPRP, -0.671; to RRIRARPPRLPRPRPRPEIIPRP, 0.396. To RRIRDRPPRLPRPRPRPMSVPRP belongs -0.00308; to RRIRYRPPRLPRPRPRPFLHPRP, -0.786; to RRIRFRPPRLPRPRPRPTNQPRP, -0.259. On to RRIRKRPPRLPRPRPRPNWWPRP, for which the “shrunken log2 fold change” value was -0.382.

For the sequence RRIRERPPRLPRPRPRPVNIPRP, the “shrunken log2 fold change” value is -0.0402. Regarding RRIRMRPPRLPRPRPRPWMLPRP, the “shrunken log2 fold change” value is 0.367. For the sequence RRIRSRPPRLPRPRPRPSHWPRP, the “shrunken log2 fold change” value is 0.337. On to RRIRTRPPRLPRPRPRPFMDPRP, for which the “shrunken log2 fold change” value worked out at 0.108. With RRIRHRPPRLPRPRPRPPTEPRP, the “shrunken log2 fold change” value amounted to 0.159. Take RRIRIRPPRLPRPRPRPMEHPRP: the “shrunken log2 fold change” value was -0.199. For RRIRCRPPRLPRPRPRPNLAPRP, the “shrunken log2 fold change” value is -0.122. Consider RRIRTRPPRLPRPRPRPFNVPRP, for which the “shrunken log2 fold change” value is -0.029. On to RRIRYRPPRLPRPRPRPTCMPRP, for which the “shrunken log2 fold change” value was -0.156. On to RRIRCRPPRLPRPRPRPHRYPRP, for which the “shrunken log2 fold change” value was -0.114. Regarding RRIRGRPPRLPRPRPRPLFMPRP, the “shrunken log2 fold change” value stood at 0.223. Take RRIRYRPPRLPRPRPRPFLDPRP: the “shrunken log2 fold change” value was -0.00748. With RRIRTRPPRLPRPRPRPHFLPRP, the “shrunken log2 fold change” value was -0.218. As to RRIRERPPRLPRPRPRPCCMPRP, the “shrunken log2 fold change” value was -0.831. In the case of RRIRCRPPRLPRPRPRPVCAPRP, the “shrunken log2 fold change” value is 0.264. Turning to RRIRNRPPRLPRPRPRPTIVPRP, the “shrunken log2 fold change” value was -0.0363. As to RRIRQRPPRLPRPRPRPCAYPRP, the “shrunken log2 fold change” value was -0.0948. For the sequence RRIRFRPPRLPRPRPRPCEEPRP, the “shrunken log2 fold change” value was found to be 0.178. As for RRIRFRPPRLPRPRPRPKKIPRP, the “shrunken log2 fold change” value is -0.028. On to RRIRERPPRLPRPRPRPKVYPRP, for which the “shrunken log2 fold change” value is -0.126.

As for RRIRWRPPRLPRPRPRPRAEPRP, the “shrunken log2 fold change” value came out at 0.621. With RRIRVRPPRLPRPRPRPHWVPRP, the “shrunken log2 fold change” value is -0.152. For the sequence RRIRGRPPRLPRPRPRPLITPRP, the “shrunken log2 fold change” value turned out to be 0.676. In the case of RRIRFRPPRLPRPRPRPGLPPRP, the “shrunken log2 fold change” value was determined as 0.255. RRIRNRPPRLPRPRPRPIMEPRP: the “shrunken log2 fold change” value is -0.139.

Regarding RRIRVRPPRLPRPRPRPGWSPRP, the “shrunken log2 fold change” value stood at 0.434.

With RRIRKRPPRLPRPRPRPNWNPRP, the “shrunken log2 fold change” value is -0.191. With RRIRCRPPRLPRPRPRPYWQPRP, the “shrunken log2 fold change” value was -0.419.

With RRIRRRPPRLPRPRPRPAYFPRP, the “shrunken log2 fold change” value came out at 0.401. Consider RRIRLRPPRLPRPRPRPEYLPRP, for which the “shrunken log2 fold change” value was -0.0639. Turning to RRIRFRPPRLPRPRPRPVNSPRP, the “shrunken log2 fold change” value was -0.154. RRIRSRPPRLPRPRPRPIQHPRP: the “shrunken log2 fold change” value is -0.204. Consider RRIRIRPPRLPRPRPRPGKIPRP, for which the “shrunken log2 fold change” value was -0.0443.

Consider RRIRARPPRLPRPRPRPYHFPRP, for which the “shrunken log2 fold change” value was -0.186. To RRIRARPPRLPRPRPRPRKWPRP belongs 1.28. Turning to RRIRERPPRLPRPRPRPNFSPRP, the “shrunken log2 fold change” value was -0.114. Regarding RRIRKRPPRLPRPRPRPDRWPRP, the “shrunken log2 fold change” value was determined as 0.683.

In the case of RRIRPRPPRLPRPRPRPACTPRP, the “shrunken log2 fold change” value was found to be 0.163.

On to RRIRHRPPRLPRPRPRPFGMPRP, for which the “shrunken log2 fold change” value was -0.0621. RRIRERPPRLPRPRPRPRGAPRP: the “shrunken log2 fold change” value came to 0.59. As to RRIRQRPPRLPRPRPRPRCPPRP, the “shrunken log2 fold change” value was found to be 0.313. Regarding RRIRRRPPRLPRPRPRPHKDPRP, the “shrunken log2 fold change” value is -0.11. To RRIRMRPPRLPRPRPRPMVFPRP belongs 0.0369; to RRIRSRPPRLPRPRPRPSVTPRP, -0.171. Consider RRIRQRPPRLPRPRPRPGIIPRP, for which the “shrunken log2 fold change” value was 0.0277. Take RRIRLRPPRLPRPRPRPVTLPRP: the “shrunken log2 fold change” value is -0.751.

In the case of RRIRERPPRLPRPRPRPLADPRP, the “shrunken log2 fold change” value is -0.14. As for RRIRDRPPRLPRPRPRPRFIPRP, the “shrunken log2 fold change” value is -0.233. For RRIRQRPPRLPRPRPRPWSDPRP, the “shrunken log2 fold change” value is -0.276. As for RRIRGRPPRLPRPRPRPWFKPRP, the “shrunken log2 fold change” value was -0.824. Turning to RRIRDRPPRLPRPRPRPMDPPRP, the “shrunken log2 fold change” value was -0.0367.

With RRIRERPPRLPRPRPRPEQNPRP, the “shrunken log2 fold change” value amounted to 0.139.

As to RRIRQRPPRLPRPRPRPQSEPRP, the “shrunken log2 fold change” value is -0.173. Consider RRIRARPPRLPRPRPRPIRYPRP, for which the “shrunken log2 fold change” value is -0.263. To RRIRIRPPRLPRPRPRPQLQPRP belongs -0.0769; to RRIRWRPPRLPRPRPRPRPVPRP, 0.728. Regarding RRIRGRPPRLPRPRPRPEAMPRP, the “shrunken log2 fold change” value was found to be 0.59. Consider RRIRSRPPRLPRPRPRPHWKPRP, for which the “shrunken log2 fold change” value came out at 0.0398. With RRIRGRPPRLPRPRPRPQHKPRP, the “shrunken log2 fold change” value is -0.00366. In the case of RRIRARPPRLPRPRPRPSQCPRP, the “shrunken log2 fold change” value is -0.121.

Take RRIRRRPPRLPRPRPRPYPAPRP: the “shrunken log2 fold change” value came to 0.0876.
